Laboratory results from patent US20170174783A1 (Zymeworks, published 2017).

What was measured:
[1] = target: T1, HER2 on the surface of human tumour cell lines (human, UniProt P04626 23-1255); experiment: flow cytometry on SKOV3 cells
T1 construct: whole, on cells; also called ErbB2; Her2 receptor
Procedure: (§1) Binding of the test antibodies to the surface of SKOV3 cells was determined by flow cytometry. Cells were washed with PBS and resuspended in DMEM at 1×10⁵ cells/100 μl. 100 μl cell suspension was added into each microcentrifuge tube, followed by 10 μl/tube of the antibody variants. The tubes were incubated for 2 hr 4° C. on a rotator. The microcentrifuge tubes were centrifuged for 2 min 2000 RPM at room temperature and the cell pellets washed with 500 μl media. Each cell pellet was resuspended 100 μl of fluorochrome-labelled secondary antibody diluted in media to 2 μg/sample. The samples were then incubated for 1 hr at 4° C. on a rotator. After incubation, the cells were centrifuged for 2 min at 2000 RPM and washed in media. The cells were resuspended in 500 μl media, filtered in tube containing 5 μl propidium iodide (PI) and analyzed on a BD LSRII flow cytometer according to the manufacturer's instructions.

[2] = target: T1, HER2 on the surface of human tumour …; experiment: flow cytometry on SKOV3 cells; remark: listed apart in the source
Procedure: as §1

[3] = target: T1, HER2 on the surface of human tumour …; experiment: flow cytometry on MALME-3M cells

B1: OA4-scFv-BID2 (antibody)
chain 1: QVQLVQSGAEVKKPGESLKISCKGSGYSFTSYWIAWVRQMPGKGLEYMGLIYPGDSDTKYSPSFQGQVTISVDKSVSTAYLQWSSLKPSDSAVYFCARHDVGYCTDRTCAKWPEWLGVWGQGTLVTVSSGGGGSSGGGSGGGGSQSVLTQPPSVSAAPGQKVTISCSGSSSNIGNNYVSWYQQLPGTAPKLLIYDHTNRPAGVPDRFSGSKSGTSASLAISGFRSEDEADYYCASWDYTLSGWVFGGGTKLTVLGAAEPKSSDKTHTCPPCPAPELLGGPSVFLFPPKPKDTLMISRTPEVTCVVVDVSHEDPEVKFNWYVDGVEVHNAKTKPREEQYNSTYRVVSVLTVLHQDWLNGKEYKCKVSNKALPAPIEKTISKAKGQPREPQVYTYPPSRDELTKNQVSLTCLVKGFYPSDIAVEWESNGQPENNYKTTPPVLDSDGSFALVSKLTVDKSRWQQGNVFSCSVMHEALHNHYTQKSLSLSPGK
chain 2: not shown
notes: also called 878
In the case of B1, the Kd [1] is reported as 12.4 nM, the “fold difference in Bmax, OA4-scFv-BID2 against FSA-scFv-BID2” value [2] is reported as 1.96 fold and the “fold difference in KD, OA4-scFv-BID2 against FSA-scFv-BID2” value [2] is reported as 2.03 fold. The “EC50 (read off the curve)” value [3] was roughly 30 nM.
